The record followed here is doi:10.1101/730739.

Assay [1] deals with caprine transferrin (goat). In words: ELISA. A general note: In an ELISA, binding on a coated surface is turned into a signal by an enzyme label.
Assay [2] has as its target ovine transferrin (sheep). The experiment in a line: ELISA.
Assay [3] deals with BAP-tagged Histophilus somni Transferrin binding protein B (aa 21-643) (Histophilus somni strain H191). In words: BLI. (BLI is a label-free optical method that tracks binding on a fibre tip over time.)

As to “Histophilus somni Transferrin binding protein A 2 (receptor)”, the absorbance signal relative to that with bovine transferrin in assay [1] and in assay [2] was 0.25 fold throughout.

As to caprine transferrin (ligand), the fold lower affinity than for bovine transferrin in assay [3] was 15.7 fold. The substance ovine transferrin (ligand) yielded a fold lower affinity than for bovine transferrin in assay [3] of 3 fold.
